Test results as given in PMC3285688, “Active Site Mutations Change the Cleavage Specificity of Neprilysin” (PLoS ONE, 2012).

Tests used:
Type in all cases: biochemical
[1] = Hydrolysis of synthetic substrate Glut-Ala-Ala-Phe-MNA by NEP and mutants (fluorogenic); conditions: 37°C, 20 mM MES buffer, pH 6.5
Procedure: Reactions of 400 µl contained 100 µM Glut-Ala-Ala-Phe-MNA, 1 µg of aminopeptidase and 15 to 100 ng of NEP or mutant NEP depending on their activity in 20 mM MES buffer, pH 6.5. Activity was monitored with a Spectra Max Gemini XS plate reader using an excitation wavelength of 340 nm and an emission wavelength of 425 nm.
(§1) Kinetic constants for NEP and its mutants were obtained using the assay conditions noted above, but with Glut-Ala-Ala-Phe-MNA varied from 20 to 500 µM. Typically 12 data points were obtained. The data were fit to the Michaelis-Menten equation using Prism4 software. The Ki for insulin B chain was obtained by measuring the rate of Glut-Ala-Ala-Phe-MNA hydrolysis in the presence of varying concentrations of insulin B chain from 1 to 40 µM. Data were fit to a Dixon plot (1/rate versus [insulin B chain]) using Prism4 software and the ID50 obtained as the –x intercept, where ID50 corresponds to the concentration of insulin producing 50% inhibition. The actual Ki was obtained from the equation: ID50 = Ki (1+ [Glut-Ala-Ala-Phe-MNA]/KmGlut-Ala-Ala-Phe-MNA), [33].

insulin B chain [2] = assay: Rate of insulin B chain hydrolysis (HPLC); conditions: 15 µM insulin B chain, 37°C, 20 mM MES buffer, pH 6.5; disappearance of substrate by HPLC; at least triplicate
Procedure: (§2) Cleavage of physiological peptides was measured via reverse phase high performance liquid chromatography (HPLC) following incubation of the purified NEP or its mutants with 15 µM insulin B chain (Sigma Aldrich), 24 µM Aß1–40 (Anaspec), or 64 µM leu-ENK (Sigma) in 100 µL of 20 mM MES, pH 6.5, at 37°C. Reactions were run in triplicate. HPLC was carried out in a Vydac C4 column using a linear gradient from 0.1% trifluoroacetic acid (TFA) in 95% water, 5% acetonitrile to 0.1% TFA in 50% acetonitrile/water at a flow rate of 1 mL/min. Peptides and hydrolysis products were detected at 214 nm and quantified by measuring peak areas. Peptides obtained from HPLC were analyzed on an Applied Biosystems 4800 MALDI TOF/TOF Proteomics Analyzer at the University of Kentucky Proteomics core. This facility is supported in part by grant P20RR020171 from the NIH/NCRR.
(§3) Statistical analysis comparing wild-type NEP and its mutants was performed with Prism 4 software using a two-tailed paired t-test with a 95% confidence interval.

[3] = test system: leu-ENK and insulin B chain; assay: Dual substrate assay: substrate preference leu-ENK versus insulin B chain
Procedure: (§4) The rate of cleavage of a substrate mixture is determined by both the kcat for that substrate as well by the affinity for the substrate. […] This is expected, given that each peptide acts as a competitive inhibitor of the other. […] That is the ratio for leu-ENK/insulin B chain cleavage is 3 for NEP^S546E compared to 6 for wild-type NEP.
as §2

leu-ENK [4] = assay: Dual substrate assay: leu-ENK hydrolysis in presence of insulin B chain; conditions: 15 µM insulin B chain and 64 µM leu-ENK together, 37°C, 20 mM MES buffer, pH 6.5
Procedure: as §4, §2

insulin B chain [5] = assay: Insulin B chain as alternate substrate (competitive) inhibitor of Glut-Ala-Ala-Phe-MNA hydrolysis (Dixon plot); conditions: insulin B chain 1 to 40 µM as competitive inhibitor of Glut-Ala-Ala-Phe-MNA hydrolysis by the enzyme form, 37°C, 20 mM MES, pH 6.5, ID50 converted to Ki
Procedure: as §1

leu-ENK [6] = assay: Rate of leu-ENK hydrolysis (HPLC); conditions: 64 µM leu-ENK, 37°C, 20 mM MES buffer, pH 6.5; disappearance of substrate by HPLC; at least triplicate
Procedure: as §2, §3

insulin B chain [7] = assay: Dual substrate assay: insulin B chain hydrolysis in presence of leu-ENK; conditions: 15 µM insulin B chain and 64 µM leu-ENK together, 37°C, 20 mM MES buffer, pH 6.5
Procedure: as §4, §2

Aß1–40 = assay: Rate of Aß1–40 hydrolysis (HPLC); conditions: 24 µM Aß1–40, 37°C, 20 mM MES buffer, pH 6.5; disappearance of substrate by HPLC; at least triplicate
Procedure: as §2, §3

B1: NEP^F563I: neprilysin active site mutant, Phe563 to isoleucine (protein, UniProt P08473 2-750, looked up, variant F563I)
Neprilysin: GKSESQMDITDINTPKPKKKQRWTPLEISLSVLVLLLTIIAVTMIALYATYDDGICKSSDCIKSAARLIQNMDATTEPCTDFFKYACGGWLKRNVIPETSSRYGNFDILRDELEVVLKDVLQEPKTEDIVAVQKAKALYRSCINESAIDSRGGEPLLKLLPDIYGWPVATENWEQKYGASWTAEKAIAQLNSKYGKKVLINLFVGTDDKNSVNHVIHIDQPRLGLPSRDYYECTGIYKEACTAYVDFMISVARLIRQEERLPIDENQLALEMNKVMELEKEIANATAKPEDRNDPMLLYNKMTLAQIQNNFSLEINGKPFSWLNFTNEIMSTVNISITNEEDVVVYAPEYLTKLKPILTKYSARDLQNLMSWRFIMDLVSSLSRTYKESRNAFRKALYGTTSETATWRRCANYVNGNMENAVGRLYVEAAFAGESKHVVEDLIAQIREVFIQTLDDLTWMDAETKKRAEEKALAIKERIGYPDDIVSNDNKLNNEYLELNYKEDEYFENIIQNLKFSQSKQLKKLREKVDKDEWISGAAVVNAFYSSGRNQIVFPAGILQPPIFSAQQSNSLNYGGIGMVIGHEITHGFDDNGRNFNKDGDLVDWWTQQSASNFKEQSQCMVYQYGNFSWDLAGGQHLNGINTLGENIADNGGLGQAYRAYQNYIKKNGEEKLLPGLDLNHKQLFFLNFAQVWCGTYRPEYAVNSIKTDVHSPGNFRIIGTLQNSAEFSEAFHCRKNSYMNPEKKCRVW
Q: With B1 as the molecule, how does the “Specific Activity (Glut-Ala-Ala-Phe-MNA cleavage)” value ([1]; 100 µM Glut-Ala-Ala-Phe-MNA, fluorescence ex 340 nm, em 425 nm) read?
A: Its value is 17.7 ± 0.6 pmol/min/ng.

Q: And the Km ([1]; Glut-Ala-Ala-Phe-MNA 20 to 500 µM, Michaelis-Menten fit)?
A: Its Km is 83 ± 4 µM.

Q: What about the “Rate of hydrolysis of Insulin B Chain” value (insulin B chain [2]) of the same molecule?
A: Its value is 0.13 ± 0.02 pmol/min/ng.

Q: And the “Substrate preference leu-ENK/insulin B chain (in words)” value ([3]; dual substrate assay, versus wild-type)?
A: Its value is “shift in substrate preference toward leu-ENK”.

Q: And the “Ratio leu-ENK insulin B chain” value ([3]; ratio of rates, 15 µM insulin B chain and 64 µM leu-ENK together)?
A: Its value is 31.0.

Q: What about the “leu-ENK hydrolysis rate, dual substrate assay” value (leu-ENK [4]) of the same molecule?
A: Its value is 0.62 ± 0.03 pmol/min/ng.

Q: What about the “leu-ENK hydrolysis, activity relative to the uninhibited value” (leu-ENK [4]; numbers in parenthesis) of the same molecule?
A: The value was 0.58.

Q: What about the Ki (insulin B chain [5]) of the same molecule?
A: The Ki was 2500 ± 900 nM.

Q: What about the “Rate of hydrolysis of leu-ENK” value (leu-ENK [6]) of the same molecule?
A: Its value is 1.06 ± 0.17 pmol/min/ng.

Q: And the “Insulin B Chain hydrolysis rate, dual substrate assay” value (insulin B chain [7])?
A: Its value is 0.02 ± 0.01 pmol/min/ng.

Q: What about the “Insulin B Chain hydrolysis, activity relative to the uninhibited value” (insulin B chain [7]; numbers in parenthesis) of the same molecule?
A: The value was 0.15.

Q: What about the “Rate of hydrolysis of Aß1–40” value (Aß1–40) of the same molecule?
A: The value was 43 ± 1 fmol/min/ng.
